# Measured values as given in article PMC10611751 (2023).
# B1: E-cadherin residues 755-770 (site-1) [mouse] / Ankyrin-G 24 ANK repeats (residues 38-855) [not stated] (parent complex)
# chain 1: YYYDEEGGGEEDQDFD
# chain 2: KSDANASYLRAARAGHLEKALDYIKNGVDVNICNQNGLNALHLASKEGHVEVVSELLQREANVDAATKKGNTALHIASLAGQAEVVKVLVTNGANVNAQSQNGFTPLYMAAQENHLEVVRFLLDNGASQSLATEDGFTPLAVALQQGHDQVVSLLLENDTKGKVRLPALHIAARKDDTKAAALLLQNDTNADIESKMVVNRATESGFTPLHIAAHYGNINVATLLLNRAAAVDFTARNDITPLHVASKRGNANMVKLLLDRGAKIDAKTRDGLTPLHCGARSGHEQVVEMLLDRAAPILSKTKNGLSPLHMATQGDHLNCVQLLLQHNVPVDDVTNDYLTALHVAAHCGHYKVAKVLLDKKANPNAKALNGFTPLHIACKKNRIRVMELLLKHGASIQAVTESGLTPIHVAAFMGHVNIVSQLMHHGASPNTTNVRGETALHMAARSGQAEVVRYLVQDGAQVEAKAKDDQTPLHISARLGKADIVQQLLQQGASPNAATTSGYTPLHLSAREGHEDVAAFLLDHGASLSITTKKGFTPLHVAAKYGKLEVASLLLQKSASPDAAGKSGLTPLHVAAHYDNQKVALLLLDQGASPHAAAKNGYTPLHIAAKKNQMDIATSLLEYGADANAVTRQGIASVHLAAQEGHVDMVSLLLSRNANVNLSNKSGLTPLHLAAQEDRVNVAEVLVNQGAHVDAQTKMGYTPLHVGCHYGNIKIVNFLLQHSAKVNAKTKNGYTPLHQAAQQGHTHIINVLLQNNASPNELTVNGNTALAIARRLGYISVVDTLKVVTEEIMTTTTITEKHKMNVPETMNEVLDMS
# B2: E-cadherin residues 854-869 (site-3) [mouse] / Ankyrin-G 24 ANK repeats (residues 38-855) [not stated] (parent complex)
# chain 1: ESDQDQDYDYLNEWGN
# chain 2: B1 chain 2
# B3: E-cadherin residues 828-842 (site-2) [mouse] / Ankyrin-G 24 ANK repeats (residues 38-855) [not stated] (parent complex)
# chain 1: PYDSLLVFDYEGSGS
# chain 2: B1 chain 2
# Variants of: B1
# Test: ITC; parent: 900 nM
row,Variant,Kd
1,chain 1 AYYDEEGGGEEDQDFD,5 µM
2,chain 1 YAADEEGGGEEDQDFD,7.1 µM
3,chain 1 AAYDEEGGGEEDQDFD,4.2 µM
4,chain 1 YAYDEEGGGEEDQDFD,2.2 µM
5,chain 1 YYADEEGGGEEDQDFD,2.2 µM
6,chain 1 AYADEEGGGEEDQDFD,4.1 µM

# Variants of: B2
# Test: ITC; parent: 1.8e+03 nM
row,Variant,Kd
1,chain 1 ESDQDQDADYLNEWGN,3.2 µM
2,chain 1 ESDQDQDYDYLNEAGN,3.9 µM
3,chain 1 ESDQDQDYDALNEWGN,3.9 µM
4,chain 1 ESDQDQDADALNEWGN,5.8 µM

# Variants of: B3
# Test: ITC; parent: 1.9e+03 nM
row,Variant,Kd
1,chain 1 PADSLLVFDYEGSGS,1.7 µM
2,chain 1 PYDSLLVFDAEGSGS,9.5 µM
